Molecular target: T1, TGFβ1 (R&D Systems)
T1 construct: also called TGFB1
Test: single point SPR

T1 sequence (P01137 279-390): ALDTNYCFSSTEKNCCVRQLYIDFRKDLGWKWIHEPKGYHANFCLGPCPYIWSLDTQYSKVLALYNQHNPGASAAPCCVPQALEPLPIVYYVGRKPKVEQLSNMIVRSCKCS

Kd [nM]	Binder
0.341	Can-SL501-VH3 D108E / Can-SL501-VL2 (antibody, V domains shown) VH: EVQLVESGGDLVKPGGSLRLSCVASGFTFSSYGMHWVRQAPGKELEWVAVISYDGSIKYYADAVKGRFTISRDNAKNTLYLQMNSLRAEDTAVYYCARTGEYSGYDTEPQYSWGQGTTVTVSS VL: EIVMTQSPGSLAGSAGESVSINCRASQGIGDDLGWYQQKPGERPKLLIYGTSTLQSGVPARFSSSGSGTDFTLTINNLQAEDVGDYYCLQDSNYPLTFGAGTK
8.38	Can-SL501-VH3 Q110R / Can-SL501-VL2 (antibody, V domains shown) VH: EVQLVESGGDLVKPGGSLRLSCVASGFTFSSYGMHWVRQAPGKELEWVAVISYDGSIKYYADAVKGRFTISRDNAKNTLYLQMNSLRAEDTAVYYCARTGEYSGYDTDPRYSWGQGTTVTVSS VL: EIVMTQSPGSLAGSAGESVSINCRASQGIGDDLGWYQQKPGERPKLLIYGTSTLQSGVPARFSSSGSGTDFTLTINNLQAEDVGDYYCLQDSNYPLTFGAGTK
1.35	Can-SL501-VH3 P109H / Can-SL501-VL2 (antibody, V domains shown) VH: EVQLVESGGDLVKPGGSLRLSCVASGFTFSSYGMHWVRQAPGKELEWVAVISYDGSIKYYADAVKGRFTISRDNAKNTLYLQMNSLRAEDTAVYYCARTGEYSGYDTDHQYSWGQGTTVTVSS VL: EIVMTQSPGSLAGSAGESVSINCRASQGIGDDLGWYQQKPGERPKLLIYGTSTLQSGVPARFSSSGSGTDFTLTINNLQAEDVGDYYCLQDSNYPLTFGAGTK
1.59	Can-SL501-VH3 P109G / Can-SL501-VL2 (antibody, V domains shown) VH: EVQLVESGGDLVKPGGSLRLSCVASGFTFSSYGMHWVRQAPGKELEWVAVISYDGSIKYYADAVKGRFTISRDNAKNTLYLQMNSLRAEDTAVYYCARTGEYSGYDTDGQYSWGQGTTVTVSS VL: EIVMTQSPGSLAGSAGESVSINCRASQGIGDDLGWYQQKPGERPKLLIYGTSTLQSGVPARFSSSGSGTDFTLTINNLQAEDVGDYYCLQDSNYPLTFGAGTK
13.9	Can-SL501-VH3 Y111W / Can-SL501-VL2 (antibody, V domains shown) VH: EVQLVESGGDLVKPGGSLRLSCVASGFTFSSYGMHWVRQAPGKELEWVAVISYDGSIKYYADAVKGRFTISRDNAKNTLYLQMNSLRAEDTAVYYCARTGEYSGYDTDPQWSWGQGTTVTVSS VL: EIVMTQSPGSLAGSAGESVSINCRASQGIGDDLGWYQQKPGERPKLLIYGTSTLQSGVPARFSSSGSGTDFTLTINNLQAEDVGDYYCLQDSNYPLTFGAGTK
9.68	Can-SL501-VH3 D108N / Can-SL501-VL2 (antibody, V domains shown) VH: EVQLVESGGDLVKPGGSLRLSCVASGFTFSSYGMHWVRQAPGKELEWVAVISYDGSIKYYADAVKGRFTISRDNAKNTLYLQMNSLRAEDTAVYYCARTGEYSGYDTNPQYSWGQGTTVTVSS VL: EIVMTQSPGSLAGSAGESVSINCRASQGIGDDLGWYQQKPGERPKLLIYGTSTLQSGVPARFSSSGSGTDFTLTINNLQAEDVGDYYCLQDSNYPLTFGAGTK
4.5	Can-SL501-VH3 Y111H / Can-SL501-VL2 (antibody, V domains shown) VH: EVQLVESGGDLVKPGGSLRLSCVASGFTFSSYGMHWVRQAPGKELEWVAVISYDGSIKYYADAVKGRFTISRDNAKNTLYLQMNSLRAEDTAVYYCARTGEYSGYDTDPQHSWGQGTTVTVSS VL: EIVMTQSPGSLAGSAGESVSINCRASQGIGDDLGWYQQKPGERPKLLIYGTSTLQSGVPARFSSSGSGTDFTLTINNLQAEDVGDYYCLQDSNYPLTFGAGTK
5.76	Can-SL501-VH3 Q110H / Can-SL501-VL2 (antibody, V domains shown) VH: EVQLVESGGDLVKPGGSLRLSCVASGFTFSSYGMHWVRQAPGKELEWVAVISYDGSIKYYADAVKGRFTISRDNAKNTLYLQMNSLRAEDTAVYYCARTGEYSGYDTDPHYSWGQGTTVTVSS VL: EIVMTQSPGSLAGSAGESVSINCRASQGIGDDLGWYQQKPGERPKLLIYGTSTLQSGVPARFSSSGSGTDFTLTINNLQAEDVGDYYCLQDSNYPLTFGAGTK
7.37	Can-SL501-VH3 Q110V / Can-SL501-VL2 (antibody, V domains shown) VH: EVQLVESGGDLVKPGGSLRLSCVASGFTFSSYGMHWVRQAPGKELEWVAVISYDGSIKYYADAVKGRFTISRDNAKNTLYLQMNSLRAEDTAVYYCARTGEYSGYDTDPVYSWGQGTTVTVSS VL: EIVMTQSPGSLAGSAGESVSINCRASQGIGDDLGWYQQKPGERPKLLIYGTSTLQSGVPARFSSSGSGTDFTLTINNLQAEDVGDYYCLQDSNYPLTFGAGTK
3.51	Can-SL501-VH3 D108P / Can-SL501-VL2 (antibody, V domains shown) VH: EVQLVESGGDLVKPGGSLRLSCVASGFTFSSYGMHWVRQAPGKELEWVAVISYDGSIKYYADAVKGRFTISRDNAKNTLYLQMNSLRAEDTAVYYCARTGEYSGYDTPPQYSWGQGTTVTVSS VL: EIVMTQSPGSLAGSAGESVSINCRASQGIGDDLGWYQQKPGERPKLLIYGTSTLQSGVPARFSSSGSGTDFTLTINNLQAEDVGDYYCLQDSNYPLTFGAGTK
1.83	Can-SL501-VH3 D108H / Can-SL501-VL2 (antibody, V domains shown) VH: EVQLVESGGDLVKPGGSLRLSCVASGFTFSSYGMHWVRQAPGKELEWVAVISYDGSIKYYADAVKGRFTISRDNAKNTLYLQMNSLRAEDTAVYYCARTGEYSGYDTHPQYSWGQGTTVTVSS VL: EIVMTQSPGSLAGSAGESVSINCRASQGIGDDLGWYQQKPGERPKLLIYGTSTLQSGVPARFSSSGSGTDFTLTINNLQAEDVGDYYCLQDSNYPLTFGAGTK
7.46	Can-SL501-VH3 Y111P / Can-SL501-VL2 (antibody, V domains shown) VH: EVQLVESGGDLVKPGGSLRLSCVASGFTFSSYGMHWVRQAPGKELEWVAVISYDGSIKYYADAVKGRFTISRDNAKNTLYLQMNSLRAEDTAVYYCARTGEYSGYDTDPQPSWGQGTTVTVSS VL: EIVMTQSPGSLAGSAGESVSINCRASQGIGDDLGWYQQKPGERPKLLIYGTSTLQSGVPARFSSSGSGTDFTLTINNLQAEDVGDYYCLQDSNYPLTFGAGTK
4.97	Can-SL501-VH3 P109S / Can-SL501-VL2 (antibody, V domains shown) VH: EVQLVESGGDLVKPGGSLRLSCVASGFTFSSYGMHWVRQAPGKELEWVAVISYDGSIKYYADAVKGRFTISRDNAKNTLYLQMNSLRAEDTAVYYCARTGEYSGYDTDSQYSWGQGTTVTVSS VL: EIVMTQSPGSLAGSAGESVSINCRASQGIGDDLGWYQQKPGERPKLLIYGTSTLQSGVPARFSSSGSGTDFTLTINNLQAEDVGDYYCLQDSNYPLTFGAGTK
0.534	Can-SL501-VH3 P109F / Can-SL501-VL2 (antibody, V domains shown) VH: EVQLVESGGDLVKPGGSLRLSCVASGFTFSSYGMHWVRQAPGKELEWVAVISYDGSIKYYADAVKGRFTISRDNAKNTLYLQMNSLRAEDTAVYYCARTGEYSGYDTDFQYSWGQGTTVTVSS VL: EIVMTQSPGSLAGSAGESVSINCRASQGIGDDLGWYQQKPGERPKLLIYGTSTLQSGVPARFSSSGSGTDFTLTINNLQAEDVGDYYCLQDSNYPLTFGAGTK
0.798	Can-SL501-VH3 D108T / Can-SL501-VL2 (antibody, V domains shown) VH: EVQLVESGGDLVKPGGSLRLSCVASGFTFSSYGMHWVRQAPGKELEWVAVISYDGSIKYYADAVKGRFTISRDNAKNTLYLQMNSLRAEDTAVYYCARTGEYSGYDTTPQYSWGQGTTVTVSS VL: EIVMTQSPGSLAGSAGESVSINCRASQGIGDDLGWYQQKPGERPKLLIYGTSTLQSGVPARFSSSGSGTDFTLTINNLQAEDVGDYYCLQDSNYPLTFGAGTK
6.9	Can-SL501-VH3 P109W / Can-SL501-VL2 (antibody, V domains shown) VH: EVQLVESGGDLVKPGGSLRLSCVASGFTFSSYGMHWVRQAPGKELEWVAVISYDGSIKYYADAVKGRFTISRDNAKNTLYLQMNSLRAEDTAVYYCARTGEYSGYDTDWQYSWGQGTTVTVSS VL: EIVMTQSPGSLAGSAGESVSINCRASQGIGDDLGWYQQKPGERPKLLIYGTSTLQSGVPARFSSSGSGTDFTLTINNLQAEDVGDYYCLQDSNYPLTFGAGTK
8.4	Can-SL501-VH3 P109Y / Can-SL501-VL2 (antibody, V domains shown) VH: EVQLVESGGDLVKPGGSLRLSCVASGFTFSSYGMHWVRQAPGKELEWVAVISYDGSIKYYADAVKGRFTISRDNAKNTLYLQMNSLRAEDTAVYYCARTGEYSGYDTDYQYSWGQGTTVTVSS VL: EIVMTQSPGSLAGSAGESVSINCRASQGIGDDLGWYQQKPGERPKLLIYGTSTLQSGVPARFSSSGSGTDFTLTINNLQAEDVGDYYCLQDSNYPLTFGAGTK
5.61	Can-SL501-VH3 Q110T / Can-SL501-VL2 (antibody, V domains shown) VH: EVQLVESGGDLVKPGGSLRLSCVASGFTFSSYGMHWVRQAPGKELEWVAVISYDGSIKYYADAVKGRFTISRDNAKNTLYLQMNSLRAEDTAVYYCARTGEYSGYDTDPTYSWGQGTTVTVSS VL: EIVMTQSPGSLAGSAGESVSINCRASQGIGDDLGWYQQKPGERPKLLIYGTSTLQSGVPARFSSSGSGTDFTLTINNLQAEDVGDYYCLQDSNYPLTFGAGTK
1.17	Can-SL501-VH3 Y111M / Can-SL501-VL2 (antibody, V domains shown) VH: EVQLVESGGDLVKPGGSLRLSCVASGFTFSSYGMHWVRQAPGKELEWVAVISYDGSIKYYADAVKGRFTISRDNAKNTLYLQMNSLRAEDTAVYYCARTGEYSGYDTDPQMSWGQGTTVTVSS VL: EIVMTQSPGSLAGSAGESVSINCRASQGIGDDLGWYQQKPGERPKLLIYGTSTLQSGVPARFSSSGSGTDFTLTINNLQAEDVGDYYCLQDSNYPLTFGAGTK
6.4	Can-SL501-VH3 Q110S / Can-SL501-VL2 (antibody, V domains shown) VH: EVQLVESGGDLVKPGGSLRLSCVASGFTFSSYGMHWVRQAPGKELEWVAVISYDGSIKYYADAVKGRFTISRDNAKNTLYLQMNSLRAEDTAVYYCARTGEYSGYDTDPSYSWGQGTTVTVSS VL: EIVMTQSPGSLAGSAGESVSINCRASQGIGDDLGWYQQKPGERPKLLIYGTSTLQSGVPARFSSSGSGTDFTLTINNLQAEDVGDYYCLQDSNYPLTFGAGTK
1.25	Can-SL501-VH3 D108Q / Can-SL501-VL2 (antibody, V domains shown) VH: EVQLVESGGDLVKPGGSLRLSCVASGFTFSSYGMHWVRQAPGKELEWVAVISYDGSIKYYADAVKGRFTISRDNAKNTLYLQMNSLRAEDTAVYYCARTGEYSGYDTQPQYSWGQGTTVTVSS VL: EIVMTQSPGSLAGSAGESVSINCRASQGIGDDLGWYQQKPGERPKLLIYGTSTLQSGVPARFSSSGSGTDFTLTINNLQAEDVGDYYCLQDSNYPLTFGAGTK
0.724	Can-SL501-VH3 D108S / Can-SL501-VL2 (antibody, V domains shown) VH: EVQLVESGGDLVKPGGSLRLSCVASGFTFSSYGMHWVRQAPGKELEWVAVISYDGSIKYYADAVKGRFTISRDNAKNTLYLQMNSLRAEDTAVYYCARTGEYSGYDTSPQYSWGQGTTVTVSS VL: EIVMTQSPGSLAGSAGESVSINCRASQGIGDDLGWYQQKPGERPKLLIYGTSTLQSGVPARFSSSGSGTDFTLTINNLQAEDVGDYYCLQDSNYPLTFGAGTK
